B1: Protein Vpx (Simian immunodeficiency virus (isolate PBj14/BCL-3)), P19508 (parent)
chain: MSDPRERIPPGNSGEETIGEAFDWLDRTVEEINRAAVNHLPRELIFQVWRRSWEYWHDEMGMSVSYTKYRYLCLIQKAMFMHCKKGCRCLGGEHGAGGWRPGPPPPPPPGLA
B2: Protein Vpr (Human immunodeficiency virus type 1 group M subtype B (isolate BRU/LAI)), P05928 (parent)
chain: MEQAPEDQGPQREPHNEWTLELLEELKNEAVRHFPRIWLHGLGQHIYETYGDTWAGVEAIIRILQQLLFIHFRIGCRHSRIGVTQQRRARNGASRS

The variants in one test derive from B1. Particulars: with DCAF1, Q9Y4B6-3.
Target sequence in this assay (Q9Y4B6 other isoform, or with tags, fused parts or gaps): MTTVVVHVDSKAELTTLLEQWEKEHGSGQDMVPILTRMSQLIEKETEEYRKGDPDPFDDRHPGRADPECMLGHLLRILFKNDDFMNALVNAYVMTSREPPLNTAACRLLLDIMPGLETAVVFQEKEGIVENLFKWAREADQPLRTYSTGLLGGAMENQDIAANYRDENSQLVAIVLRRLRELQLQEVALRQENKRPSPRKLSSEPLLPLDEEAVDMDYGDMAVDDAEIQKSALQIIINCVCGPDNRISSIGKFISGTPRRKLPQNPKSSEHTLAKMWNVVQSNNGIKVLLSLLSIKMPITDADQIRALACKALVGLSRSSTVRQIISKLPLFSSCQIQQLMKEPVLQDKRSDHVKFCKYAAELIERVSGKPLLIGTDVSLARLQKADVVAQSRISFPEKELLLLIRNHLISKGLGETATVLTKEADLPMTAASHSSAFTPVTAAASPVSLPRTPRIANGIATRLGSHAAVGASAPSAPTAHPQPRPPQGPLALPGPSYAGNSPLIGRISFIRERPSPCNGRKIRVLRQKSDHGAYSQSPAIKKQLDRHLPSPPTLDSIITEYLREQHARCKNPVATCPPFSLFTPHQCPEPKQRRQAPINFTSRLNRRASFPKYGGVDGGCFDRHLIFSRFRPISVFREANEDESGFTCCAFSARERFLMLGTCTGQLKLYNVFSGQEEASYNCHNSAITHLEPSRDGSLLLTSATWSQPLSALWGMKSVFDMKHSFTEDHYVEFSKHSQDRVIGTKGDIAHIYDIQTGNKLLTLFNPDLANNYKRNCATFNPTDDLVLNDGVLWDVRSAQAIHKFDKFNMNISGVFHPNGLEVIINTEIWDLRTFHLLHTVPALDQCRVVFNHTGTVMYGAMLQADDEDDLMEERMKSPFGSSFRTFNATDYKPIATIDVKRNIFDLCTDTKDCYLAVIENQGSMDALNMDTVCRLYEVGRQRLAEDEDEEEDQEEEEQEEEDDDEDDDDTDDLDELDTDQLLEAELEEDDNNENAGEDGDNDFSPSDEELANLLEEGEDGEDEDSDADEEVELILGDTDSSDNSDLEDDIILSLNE
For the variant MSDPRERIPPGNSGEETIGEAFDWLDRTVEEINRAAVNHLPRELIFQVWRRSWEYWHDEMGMSVSYTKYRYLCLIRKAMFMHCKKGCRCLGGEHGAGGWRPGPPPPPPPGLA [Q76R], the “effect of a mutation on the interaction” value is “disrupting interaction”.

Another test covers variants of B2. Particulars: with DCAF1, Q9Y4B6-3.
Target sequence in this assay (Q9Y4B6 other isoform, or with tags, fused parts or gaps): as the sequence (Q9Y4B6 other isoform, or with tags, fused parts or gaps) above
With Q65A, the “effect of a mutation on the interaction” value was “disrupting interaction”.

As for MEQAPEDQGPQREPHNEWTLELLEELKNEAVRHFPRIWLHGLGQHIYETYGDTWAGVEAIIRILRQLLFIHFRIGCRHSRIGVTQQRRARNGASRS [Q65R], the “effect of a mutation on the interaction” value was “disrupting interaction”.

(Values after IntAct's records for PubMed 17314515.)
